This is an account of results in PMC11937023.

For this assay, the target named is endogenous CD64 (FcγRI) on primary human myeloid cells (human (endogenous in primary human monocytes)) (UniProt P12314).
Sequence of UniProt P12314 (P12314 16-374): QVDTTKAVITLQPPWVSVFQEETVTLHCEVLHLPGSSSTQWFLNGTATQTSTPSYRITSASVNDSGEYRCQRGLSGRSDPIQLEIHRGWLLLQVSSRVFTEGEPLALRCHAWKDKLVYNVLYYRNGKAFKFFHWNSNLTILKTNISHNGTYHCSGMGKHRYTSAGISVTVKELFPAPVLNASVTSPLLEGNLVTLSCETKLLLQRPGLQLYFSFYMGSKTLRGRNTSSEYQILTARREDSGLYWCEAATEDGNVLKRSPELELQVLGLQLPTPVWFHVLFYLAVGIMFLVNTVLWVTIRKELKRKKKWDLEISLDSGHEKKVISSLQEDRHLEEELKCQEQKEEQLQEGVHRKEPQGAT

Turning to guselkumab (antibody), the IC50 for inhibiting IL-23 signaling (luciferase in IL-23 reporter cells) in co-culture with R848-stimulated, IFNγ-primed CD64+ THP-1 cells, 16 hours is 0.092 nM.
The value for “guselkumab modified to contain LALA mutations in the Fc domain (antibody)” was 0.477 nM.
